Laboratory results as given in patent publication US20220195067A1 (LAMKAP BIO BETA, published 2022).
Changes are numbered by the printed parent chain.

T1: human CEACAM5 on CEACAM5-expressing cancer cell lines (human, UniProt P06731 35-685)
T1 construct: whole, on cells; also called CEACAM5 on SK-CO-1, MKN-45, HPAF-II, SNU-C1, Ls174T, LoVo cells
T1 sequence (looked up): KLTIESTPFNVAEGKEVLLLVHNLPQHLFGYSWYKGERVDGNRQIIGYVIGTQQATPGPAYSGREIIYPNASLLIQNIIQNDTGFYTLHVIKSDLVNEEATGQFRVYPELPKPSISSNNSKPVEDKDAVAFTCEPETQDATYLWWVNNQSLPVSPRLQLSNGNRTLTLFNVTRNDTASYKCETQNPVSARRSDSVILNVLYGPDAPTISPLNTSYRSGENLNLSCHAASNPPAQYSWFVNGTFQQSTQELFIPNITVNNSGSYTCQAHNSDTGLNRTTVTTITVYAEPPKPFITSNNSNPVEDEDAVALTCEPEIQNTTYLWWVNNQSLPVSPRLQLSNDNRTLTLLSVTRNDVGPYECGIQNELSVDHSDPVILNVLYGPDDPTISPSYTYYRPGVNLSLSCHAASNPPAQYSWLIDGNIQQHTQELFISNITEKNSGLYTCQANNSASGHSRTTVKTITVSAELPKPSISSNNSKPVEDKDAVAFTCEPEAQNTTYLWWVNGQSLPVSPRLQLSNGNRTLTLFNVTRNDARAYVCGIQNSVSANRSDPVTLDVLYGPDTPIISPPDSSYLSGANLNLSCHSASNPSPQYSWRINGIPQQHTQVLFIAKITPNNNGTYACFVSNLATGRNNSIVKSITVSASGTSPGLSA

T2: recombinant human CEACAM5 Extra Cellular Domain (ECD) soluble protein (human, UniProt P06731 35-685, biotinylated in the competition ELISA of Example 4)
T2 construct: extracellular domain; also called rec. hCEACAM5; recombinant soluble human CEACAM5; not shown: C-terminal Avitag and hexa-histidine tag, or a human Fc or a mouse Fc region; which construct stood in each assay is not
T2 sequence (looked up): T1 sequence (looked up)

B1: K2AC84 (bispecific antibody, human IgG1, kappa, lambda)
heavy: not shown
light 1: QSVLTQPPSVSAAPGQKVTISCSGSSSNIGIGLVSWYQQLPGTAPKLLIYNVNTRPSGIPDRFSGSKSGTSATLGITGLQTGDEADYYCGTWDFSYRVDFGGGTKLTVLGQPKAAPSVTLFPPSSEELQANKATLVCLISDFYPGAVTVAWKADSSPVKAGVETTTPSKQSNNKYAASSYLSLTPEQWKSHRSYSCQVTHEGSTVEKTVAPTECS
light 2: not shown
notes: Kappa-lambda body; also called CD47xCEACAM5 bispecific antibody K2AC84; AC84 (CEACAM5 arm)
B2: K2AC22 (bispecific antibody, human IgG1, kappa, lambda)
heavy: not shown
light 1: B1 light 1 with G30A, I31N, L33I, N51F, V52D, T54L, R97G, V98I, D99V
light 2: not shown
notes: Kappa-lambda body, human IgG1, one arm for CEACAM5 and one for CD47; comparison antibody from WO2019234576; also called state of the art bispecific CEAxCD47 antibody K2AC22; CD47xCEACAM5 bispecific antibody K2AC22
B3: K2AC100 (bispecific antibody, human IgG1, kappa, lambda)
heavy: not shown
light 1: B1 light 1 with I31Y, V52G, T54I
light 2: not shown
notes: Kappa-lambda body; also called CD47xCEACAM5 bispecific antibody K2AC100; AC100 (CEACAM5 arm)

molecular target: T1, human CEACAM5 on CEACAM5-expressing …; assay: flow cytometry on LoVo cells (carry CEACAM5 and CD47), PE anti-human IgG Fc
Description: (§1) The binding of CD47×CEACAM5 bispecific antibodies was tested on CEACAM5-expressing human gastric adenocarcinoma cells (e.g. MKN-45), on CEACAM5-expressing human colorectal cancer cells (SK-CO-1, SNU-C1, Ls174T, and LoVo), and on CEACAM5-expressing pancreatic adenocarcinoma cells (HPAF-II).
(§2) Cells were harvested, counted, checked for viability and resuspended at 3×10⁶ cells/ml in FACS buffer (PBS 2% BSA, 0.1% NaN3). 100 μl of the cell suspension was distributed in V-bottom 96-well plates (3×10⁵ cells/well). The supernatant was removed by centrifugation 3 minutes at 4° C., 1300 rpm. Increasing concentrations of the antibody according to the invention were then added into the wells and incubated for 15 minutes at 4° C. Cells were washed twice with cold FACS buffer and re-incubated for further 15 minutes at 4° C. with the PE (R-phycoerythrin)-conjugated mouse anti-human IgG Fc secondary antibody (SouthernBiotech, pre-diluted 1:100 in FACS buffer). Cells were washed twice with cold FACS buffer and resuspended in 300 μl FACS buffer with 1:15000-diluted SytoxBlue (Life Technologies). Fluorescence, specifically mean fluorescence […] (MFI), was determined using a Cytoflex […] flow cytometer. Binding curves and […] and Emax values were obtained and calculated using GraphPad Prism7 software.

Row | EC50 | Emax (MFI) | Binder
1 | 16 nM | 360000 MFI | B1
2 | 44 nM | 230000 MFI | B2
3 | 18.7 nM | 280000 MFI | B3

molecular target: T1, human CEACAM5 on CEACAM5-expressing …; assay: flow cytometry on SNU-C1 cells (carry CEACAM5 and CD47), PE anti-human IgG Fc
Description: as §1, §2

Row | EC50 | Emax (MFI) | Binder
4 | 2.47 nM | 370000 MFI | B1
5 | 10.7 nM | 240000 MFI | B2
6 | 3.27 nM | 300000 MFI | B3

molecular target: T3, human CD47 expressed at the surface of MKN-45 cells (human, UniProt Q08722 19-323); assay: CD47/SIRPα blocking assay on MKN-45 cells (carry CD47 and CEACAM5), imaging of bound SIRPα-mouseFc
T3 construct: whole, on cells; MKN-45 cells express both CD47 and CEACAM5; also called hCD47
From the text: The cell-based assay monitoring the interaction of soluble SIRPa with human CD47 expressed at the surface of MKN-45 cells as described below was used for the detection of the blocking activity. Concentration-response experiments with bispecific antibodies according to the invention allowed determination of inhibition curves (see FIG. 4) and of IC50 values (see Table 12).
MKN-45 cancer cells, expressing both CD47 and CEACAM5, were stained with CFSE violet to allow the imaging system (CX5) to detect the cells. Briefly, 3'000 stained MKN-45 cells per well were seeded in a 384 optical well plate (Costar) and incubated for 50 minutes with increased concentrations of bispecific antibodies of the invention ([…] to 333 nM, in quadruplicates). Then, a fixed concentration of SIRPα-mouseFc premixed with anti-mouse IgG-Fc AF647 coupled antibody (Jackson Immunoresearch diluted 1:2000) was added at 50 ng/mL final. After an incubation of 3 hours and 30 minutes, images of the fluorescence signals emitted by the detected bound SIRPa on the plates were acquired with the imaging system (CX5, Thermo Fisher). Fluorescence signals (mean fluorescence intensity MFI) were plotted according to the dose range tested, and IC50 was calculated by the software (Prism, GraphPad).

T3 sequence (Q08722 19-323): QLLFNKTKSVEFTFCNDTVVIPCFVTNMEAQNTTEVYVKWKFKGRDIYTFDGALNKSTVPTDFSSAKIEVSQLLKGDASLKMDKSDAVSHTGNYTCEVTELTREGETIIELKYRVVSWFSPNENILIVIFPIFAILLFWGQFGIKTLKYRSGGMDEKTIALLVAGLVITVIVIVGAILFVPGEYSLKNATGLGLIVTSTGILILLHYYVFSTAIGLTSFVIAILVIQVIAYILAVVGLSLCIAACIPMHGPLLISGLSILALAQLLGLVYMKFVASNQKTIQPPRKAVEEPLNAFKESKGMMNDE

Row | IC50 | Binder
7 | 0.04 nM | B1
8 | 1.2 nM | B2
9 | 0.09 nM | B3

molecular target: T1, human CEACAM5 on CEACAM5-expressing …; assay: flow cytometry on SK-CO-1 cells (carry CEACAM5 and CD47), PE anti-human IgG Fc
Description: as §1, §2

Row | EC50 | Emax (MFI) | Binder
10 | 12 nM | 1e+06 MFI | B1
11 | 24 nM | 520000 MFI | B2
12 | 14.7 nM | 900000 MFI | B3

molecular target: T2, recombinant human CEACAM5 Extra …; assay: BLI (Octet), antibody on Protein A biosensor, soluble CEACAM5 ECD as analyte
Description: The affinity of the anti-human CEACAM5 arm of the CD47×CEACAM5 bispecific antibodies of the invention for recombinant soluble human CEACAM5 was determined using the Bio-Layer Interferometry (BLI) technology. An OctetRED96 instrument and Protein A biosensors were used (Sartorius). The measurement was performed at 30° C. After hydration, pre-conditioning and a baseline step in Kinetic buffer (PBS, 0.002% Tween 20, 0.01% BSA, Kathon; Sartorius), biosensors were loaded for 5 min with the κλ body at 0.5 μg/mL in Kinetic buffer. Then, biosensors were dipped into a serial dilution of recombinant human CEACAM5 Extra Cellular Domain (ECD) soluble protein (produced in house), starting at 50 nM with a 2× dilution factor. The association and dissociation phases were monitored for 600 seconds each. Biosensors were regenerated using 10 mM glycine pH 1.7. A standard acquisition rate was applied (5.0 Hz, averaging by 20). Curves were processed with a reference well subtraction, a Y alignment on the baseline, without interstep correction. The affinity was measured applying a 1:1 global fitting model on the full association and dissociation steps. The binding affinity (KD) of the bispecific antibodies of the invention to recombinant human CD47 was determined by the same experimental procedure.

Row | Kd | Binder
13 | 2.63 nM | B1
14 | 120 nM | B2
15 | 4.8 nM | B3
